Experimental data: article PMC10767740, “Recombinant Full-Length TDP-43 Oligomers Retain Their Ability to Bind RNAs, Are Not Toxic, and Do Not Seed TDP-43 Aggregation in Vitro” (ACS Chemical Neuroscience, 2023)

Biological target: the molecule itself
Assay: ThT aggregation kinetics + TEM; 5 μM core peptide, 20 μM ThT, with or without 2.5% fibrillar seeds of the same peptide; 25 °C, 40 h, shaken 5 s at 100 rpm before each reading; TEM at the end

B1: TDP-43 core peptide 279–360 (peptide, UniProt Q13148 279-360, looked up)
chain: NPGGFGNQGGFGNSRGGGAGLGNNQGSNMGGGMNFGAFSINPAMMAAAQAALQSSWGMMGMLASQQNQSGPSGNNQNQGNMQ
notes: also called amyloid core peptide; source: lyophilized, disaggregated in HFIP/TFA
- binding result: binds
